Data set [1] deals with HeLa Kyoto. Kind of data set: solubility in G1/S (NP-40 vs SDS abundance) (log2 ratio); higher = more soluble. To be noted: cell cycle stage: G1/S.
Data set [2] concerns HeLa Kyoto. In words: melting temperature (median over replicates), in situ; higher = more thermally stable.
For data set [3], the system named is HeLa Kyoto. In words: solubility change mitosis vs G1/S (difference of NP-40 vs SDS log2 ratios) (log2 ratio difference); higher = more soluble in mitosis.
For data set [4], the system named is HeLa Kyoto. In words: thermal stability score vs G1/S (z-score of summed log2 fold changes over temperatures); higher = more thermally stable than in G1/S.
Where [5] appears, read: cell cycle stage: early G1 (4.5 h after nocodazole release).
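For melting temperature (median over replicates), in situ in this document: HeLa Kyoto cells synchronized by double thymidine or nocodazole block, proteins quantified by TMT10plex mass spectrometry, three independent biological replicates.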
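For solubility change mitosis vs G1/S (difference of NP-40 vs SDS log2 ratios) in this document: synchronized HeLa Kyoto cells (double thymidine block for G1/S, nocodazole release for mitosis), protein amounts in NP-40 versus SDS lysates quantified by mass spectrometry, three biological replicates.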
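For solubility in G1/S (NP-40 vs SDS abundance) in this document: HeLa Kyoto cells arrested at G1/S by double thymidine block, proteins quantified by TMT10plex mass spectrometry in mild NP-40 versus SDS extracts, three biological replicates.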
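For thermal stability score vs G1/S (z-score of summed log2 fold changes over temperatures) in this document: synchronized HeLa Kyoto cells, proteins quantified by TMT10plex mass spectrometry, three biological replicates, mitosis taken 0.5 h after nocodazole release, G1/S directly after double thymidine block.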

For the sequence “MAAQVTLEDALSNVDLLEELPLPDQQPCIEPPPSSLLYQPNFNTNFEDRNAFVTGIARYIEQATVHSSMNEMLEEGQEYAVMLYTWRSCSRAIPQVKCNEQPNRVEIYEKTVEVLEPEVTKLMNFMYFQRNAIERFCGEVRRLCHAERRKDFVSEAYLITLGKFINMFAVLDELKNMKCSVKNDHSAYKRAAQFLRKMADPQSIQESQNLSMFLANHNKITQSLQQQLEVISGYEELLADIVNLCVDYYENRMYLTPSEKHMLLKVMGFGLYLMDGSVSNIYKLDAKKRINLSKIDKYFKQLQVVPLFGDMQIELARYIKTSAHYEENKSRWTCTSSGSSPQYNICEQMIQIREDHMRFISELARYSNSEVVTGSGRQEAQKTDAEYRKLFDLALQGLQLLSQWSAHVMEVYSWKLVHPTDKYSNKDCPDSAEEYERATRYNYTSEEKFALVEVIAMIKGLQVLMGRMESVFNHAIRHTVYAALQDFSQVTLREPLRQAIKKKKNVIQSVLQAIRKTVCDWETGHEPFNDPALRGEKDPKSGFDIKVPRRAVGPSSTQLYMVRTMLESLIADKSGSKKTLRSSLEGPTILDIEKFHRESFFYTHLINFSETLQQCCDLSQLWFREFFLELTMGRRIQFPIEMSMPWILTDHILETKEASMMEYVLYSLDLYNDSAHYALTRFNKQFLYDEIEAEVNLCFDQFVYKLADQIFAYYKVMAGSLLLDKRLRSECKNQGATIHLPPSNRYETLLKQRHVQLLGRSIDLNRLITQRVSAAMYKSLELAIGRFESEDLTSIVELDGLLEINRMTHKLLSRYLTLDGFDAMFREANHNVSAPYGRITLHVFWELNYDFLPNYCYNGSTNRFVRTVLPFSQEFQRDKQPNAQPQYLHGSKALNLAYSSIYGSYRNFVGPPHFQVICRLLGYQGIAVVMEELLKVVKSLLQGTILQYVKTLMEVMPKICRLPRHEYGSPGILEFFHHQLKDIVEYAELKTVCFQNLREVGNAILFCLLIEQSLSLEEVCDLLHAAPFQNILPRVHVKEGERLDAKMKRLESKYAPLHLVPLIERLGTPQQIAIAREGDLLTKERLCCGLSMFEVILTRIRSFLDDPIWRGPLPSNGVMHVDECVEFHRLWSAMQFVYCIPVGTHEFTVEQCFGDGLHWAGCMIIVLLGQQRRFAVLDFCYHLLKVQKHDGKDEIIKNVPLKKMVERIRKFQILNDEIITILDKYLKSGDGEGTPVEHVRCFQPPIHQSLASS [CYFIP1]”, in the data set on HeLa Kyoto [1], the “solubility in G1/S (log2)” value is -0.33. In addition, the melting temperature in the data set with HeLa Kyoto [2] (cell cycle stage: G1/S) worked out at 51.6 °C; with HeLa Kyoto [2] (cell cycle stage: mitosis), 51.1 °C. Besides, the “solubility change mitosis (log2)” value in the data set with HeLa Kyoto [3] was -0.136. In addition, the thermal stability score in the data set with HeLa Kyoto [4] (setting [5]) is -0.593; in the data set with HeLa Kyoto [4] (cell cycle stage: mitosis), -0.58.
Consider “MAARRGALIVLEGVDRAGKSTQSRKLVEALCAAGHRAELLRFPERSTEIGKLLSSYLQKKSDVEDHSVHLLFSANRWEQVPLIKEKLSQGVTLVVDRYAFSGVAFTGAKENFSLDWCKQPDVGLPKPDLVLFLQLQLADAAKRGAFGHERYENGAFQERALRCFHQLMKDTTLNWKMVDASKSIEAVHEDIRVLSEDAIRTATEKPLGELWK [DTYMK]”, for which the “solubility in G1/S (log2)” value in the data set with HeLa Kyoto [1] is -0.0236. For the same sequence, the melting temperature came to 56.9 °C in the data set with HeLa Kyoto [2] (cell cycle stage: G1/S) and 54.4 °C in the data set with HeLa Kyoto [2] (cell cycle stage: mitosis). Also, in the data set with HeLa Kyoto [3], the “solubility change mitosis (log2)” value amounted to 0.00796. Further, the figures for the thermal stability score in the data set with HeLa Kyoto [4] (setting [5]) and in the data set with HeLa Kyoto [4] (cell cycle stage: mitosis) were -8.56 and -6.57, respectively.
For “MAARRITQETFDAVLQEKAKRYHMDASGEAVSETLQFKAQDLLRAVPRSRAEMYDDVHSDGRYSLSGSVAHSRDAGREGLRSDVFPGPSFRSSNPSISDDSYFRKECGRDLEFSHSDSRDQVIGHRKLGHFRSQDWKFALRGSWEQDFGHPVSQESSWSQEYSFGPSAVLGDFGSSRLIEKECLEKESRDYDVDHPGEADSVLRGGSQVQARGRALNIVDQEGSLLGKGETQGLLTAKGGVGKLVTLRNVSTKKIPTVNRITPKTQGTNQIQKNTPSPDVTLGTNPGTEDIQFPIQKIPLGLDLKNLRLPRRKMSFDIIDKSDVFSRFGIEIIKWAGFHTIKDDIKFSQLFQTLFELETETCAKMLASFKCSLKPEHRDFCFFTIKFLKHSALKTPRVDNEFLNMLLDKGAVKTKNCFFEIIKPFDKYIMRLQDRLLKSVTPLLMACNAYELSVKMKTLSNPLDLALALETTNSLCRKSLALLGQTFSLASSFRQEKILEAVGLQDIAPSPAAFPNFEDSTLFGREYIDHLKAWLVSSGCPLQVKKAEPEPMREEEKMIPPTKPEIQAKAPSSLSDAVPQRADHRVVGTIDQLVKRVIEGSLSPKERTLLKEDPAYWFLSDENSLEYKYYKLKLAEMQRMSENLRGADQKPTSADCAVRAMLYSRAVRNLKKKLLPWQRRGLLRAQGLRGWKARRATTGTQTLLSSGTRLKHHGRQAPGLSQAKPSLPDRNDAAKDCPPDPVGPSPQDPSLEASGPSPKPAGVDISEAPQTSSPCPSADIDMKTMETAEKLARFVAQVGPEIEQFSIENSTDNPDLWFLHDQNSSAFKFYRKKVFELCPSICFTSSPHNLHTGGGDTTGSQESPVDLMEGEAEFEDEPPPREAELESPEVMPEEEDEDDEDGGEEAPAPGGAGKSEGSTPADGLPGEAAEDDLAGAPALSQASSGTCFPRKRISSKSLKVGMIPAPKRVCLIQEPKVHEPVRIAYDRPRGRPMSKKKKPKDLDFAQQKLTDKNLGFQMLQKMGWKEGHGLGSLGKGIREPVSVGTPSEGEGLGADGQEHKEDTFDVFRQRMMQMYRHKRANK [SUGP2]”, the “solubility in G1/S (log2)” value in the data set on HeLa Kyoto [1] is -0.497. Moreover, the values for the melting temperature in the data set with HeLa Kyoto [2] (cell cycle stage: G1/S) and in the data set with HeLa Kyoto [2] (cell cycle stage: mitosis) were 46 °C and 48.8 °C, respectively. In the data set on HeLa Kyoto [3], the “solubility change mitosis (log2)” value came out at 0.277. Also, the values for the thermal stability score in the data set with HeLa Kyoto [4] (setting [5]) and in the data set with HeLa Kyoto [4] (cell cycle stage: mitosis) were 1.78 and 2.89, respectively.
In the case of “MAARSWQDELAQQAEEGSARLREMLSVGLGFLRTELGLDLGLEPKRYPGWVILVGTGALGLLLLFLLGYGWAAACAGARKKRRSPPRKREEAAAVPAAAPDDLALLKNLRSEEQKKKNRKKLSEKPKPNGRTVEVAEGEAVRTPQSVTAKQPPEIDKKNEKSKKNKKKSKSDAKAVQNSSRHDGKEVDEGAWETKISHREKRQQRKRDKVLTDSGSLDSTIPGIENTITVTTEQLTTASFPVGSKKNKGDSHLNVQVSNFKSGKGDSTLQVSSGLNENLTVNGGGWNEKSVKLSSQISAGEEKWNSVSPASAGKRKTEPSAWSQDTGDANTNGKDWGRSWSDRSIFSGIGSTAEPVSQSTTSDYQWDVSRNQPYIDDEWSGLNGLSSADPNSDWNAPAEEWGNWVDEERASLLKSQEPIPDDQKVSDDDKEKGEGALPTGKSKKKKKKKKKQGEDNSTAQDTEELEKEIREDLPVNTSKTRPKQEKAFSLKTISTSDPAEVLVKNSQPIKTLPPATSTEPSVILSKSDSDKSSSQVPPILQETDKSKSNTKQNSVPPSQTKSETSWESPKQIKKKKKARRET [MTDH]”, the “solubility in G1/S (log2)” value in the data set with HeLa Kyoto [1] is -0.39. Also, the melting temperature with HeLa Kyoto [2] (cell cycle stage: G1/S) is 59.1 °C; with HeLa Kyoto [2] (cell cycle stage: mitosis), 58.3 °C. The “solubility change mitosis (log2)” value with HeLa Kyoto [3] came to 0.414. The thermal stability score with HeLa Kyoto [4] (setting [5]) was -2.14; in the data set on HeLa Kyoto [4] (cell cycle stage: mitosis) it was -6.31.
As for “MAARVLIIGSGGREHTLAWKLAQSHHVKQVLVAPGNAGTACSEKISNTAISISDHTALAQFCKEKKIEFVVVGPEAPLAAGIVGNLRSAGVQCFGPTAEAAQLESSKRFAKEFMDRHGIPTAQWKAFTKPEEACSFILSADFPALVVKASGLAAGKGVIVAKSKEEACKAVQEIMQEKAFGAAGETIVIEELLDGEEVSCLCFTDGKTVAPMPPAQDHKRLLEGDGGPNTGGMGAYCPAPQVSNDLLLKIKDTVLQRTVDGMQQEGTPYTGILYAGIMLTKNGPKVLEFNCRFGDPECQVILPLLKSDLYEVIQSTLDGLLCTSLPVWLENHTALTVVMASKGYPGDYTKGVEITGFPEAQALGLEVFHAGTALKNGKVVTHGGRVLAVTAIRENLISALEEAKKGLAAIKFEGAIYRKDVGFRAIAFLQQPRSLTYKESGVDIAAGNMLVKKIQPLAKATSRSGCKVDLGGFAGLFDLKAAGFKDPLLASGTDGVGTKLKIAQLCNKHDTIGQDLVAMCVNDILAQGAEPLFFLDYFSCGKLDLSVTEAVVAGIAKACGKAGCALLGGETAEMPDMYPPGEYDLAGFAVGAMERDQKLPHLERITEGDVVVGIASSGLHSNGFSLVRKIVAKSSLQYSSPAPDGCGDQTLGDLLLTPTRIYSHSLLPVLRSGHVKAFAHITGGGLLENIPRVLPEKLGVDLDAQTWRIPRVFSWLQQEGHLSEEEMARTFNCGVGAVLVVSKEQTEQILRDIQQHKEEAWVIGSVVARAEGSPRVKVKNLIESMQINGSVLKNGSLTNHFSFEKKKARVAVLISGTGSNLQALIDSTREPNSSAQIDIVISNKAAVAGLDKAERAGIPTRVINHKLYKNRVEFDSAIDLVLEEFSIDIVCLAGFMRILSGPFVQKWNGKMLNIHPSLLPSFKGSNAHEQALETGVTVTGCTVHFVAEDVDAGQIILQEAVPVKRGDTVATLSERVKLAEHKIFPAALQLVASGTVQLGENGKICWVKEE [GART]”, the “solubility in G1/S (log2)” value in the data set with HeLa Kyoto [1] is 0.201. Besides, the melting temperature with HeLa Kyoto [2] (cell cycle stage: G1/S) turned out to be 50.8 °C; in the data set on HeLa Kyoto [2] (cell cycle stage: mitosis), 51 °C. The “solubility change mitosis (log2)” value in the data set with HeLa Kyoto [3] was -0.137. Besides, the thermal stability score in the data set with HeLa Kyoto [4] (setting [5]) was 0.0198; with HeLa Kyoto [4] (cell cycle stage: mitosis), 0.936.

The record behind these values is the supplement of paper PMC5998384.
